Laboratory results from the Human Domainome abundance scans (Beltran et al. 2025).
± gives the uncertainty stated by the source.

B1: V(D)J recombination-activating protein 2, residues 415 to 491; numbered along this chain, P55895 (parent)
chain: YWITCCPTCDVDINTWVPFYSTELNKPAMIYCSHGDGHWVHAQCMDLAERTLIHLSAGSNKYYCNEHVEIARALHTP

Variants of: B1
Experiment: abundance fitness (aPCA) (normalised: wild type 0, dead -1); higher = more abundant; growth selection in yeast, the domain comes from the species named
Settings: Homo sapiens

Row | Variant | abundance fitness
1 | YWITCCPTCDVDINTWVPFYSTELNKPAMIYCSHGDGHWVHAQCMDLAERTLIHLSAGSNKYYCNEDVEIARALHTP | -0.424 ± 0.1
2 | YWITCCPTCDVDINTWVPFYSTELNKPAMIYCSHGDGHWVHAQCMDLAERTLIHLSAGSNKYYCKEHVEIARALHTP | -0.047 ± 0.081
3 | YWITCCPTCDVDINTWVPFYSTELNKPAMIYCSHGDGHWVHAQCMDLAERTLIHLSAGSNKYYCIEHVEIARALHTP | 0.185 ± 0.13
4 | YWITCCPTCDVDINTWVPFYSTELNKPAMIYCSHGDGHWVHAQCMDLAERTLIHLSAGSNKYYCFEHVEIARALHTP | -0.172 ± 0.12
5 | YWITCCPTCDVDINTWVPFYSTELNKPAMIYCSHGDGHWVHAQCMDLAERTLIHLSAGSNKYYCSEHVEIARALHTP | 0.079 ± 0.079
6 | YWITCCPTCDVDINTWVPFYSTELNKPAMIYCSHGDGHWVHAQCMDLAERTLIHLSAGSNKYYCWEHVEIARALHTP | 0.036 ± 0.078
7 | YWITCCPTCDVDINTWVRFYSTELNKPAMIYCSHGDGHWVHAQCMDLAERTLIHLSAGSNKYYCNEHVEIARALHTP | -0.381 ± 0.081
8 | YWITCCPTCDVDINTWVQFYSTELNKPAMIYCSHGDGHWVHAQCMDLAERTLIHLSAGSNKYYCNEHVEIARALHTP | -0.425 ± 0.14
9 | YWITCCPTCDVDINTWVPFYSTELNKPAMIYCSHGDGHWVHAQCMDLAERTLIHLSAGSNKYYCNEHREIARALHTP | -0.163 ± 0.18
10 | YWITCCPTCDVDINTWVPFYSTELNKPAMIYCSHGDGHWVHAQCMDLAEKTLIHLSAGSNKYYCNEHVEIARALHTP | 0.015 ± 0.093
11 | YWITCCPTCDVDINTWVPFYSTELNKPAMIYCSRGDGHWVHAQCMDLAERTLIHLSAGSNKYYCNEHVEIARALHTP | -0.119 ± 0.074
12 | YWITCCPTCDVDINTWVPFYSTELNKPAMIYCSEGDGHWVHAQCMDLAERTLIHLSAGSNKYYCNEHVEIARALHTP | -0.085 ± 0.082
13 | YWITCCPTCDVDINTWVPFYSTELNKPAMIYCSHGDGHWVHAQCMDLMERTLIHLSAGSNKYYCNEHVEIARALHTP | -0.022 ± 0.075
14 | YWITCCPTCDVDINTWVPFYSTELNKPAMIYCSHGDGHWVHAQCMDLRERTLIHLSAGSNKYYCNEHVEIARALHTP | 0.023 ± 0.058
15 | YWITCCPTCDVDINTWVPFYSTELNKPAMIYCSHGDGVWVHAQCMDLAERTLIHLSAGSNKYYCNEHVEIARALHTP | -0.776 ± 0.31
16 | YWITCCPTCDVDINTWVPFYSTELNKPAMIYCSHGDGHWVHAQCMDLAERLLIHLSAGSNKYYCNEHVEIARALHTP | 0.016 ± 0.058
17 | YWITCCPTCDVDINTWVPFYSTELNKPAMIYCSHGDGHWVHAQCMDLAERCLIHLSAGSNKYYCNEHVEIARALHTP | -0.027 ± 0.11
18 | YWITCCPTCDVDINTWVPFYSTELNKPAMIYCSHGDGHWVYAQCMDLAERTLIHLSAGSNKYYCNEHVEIARALHTP | -0.771 ± 0.34

Row | Variant | abundance fitness
19 | YWITCCPTCDVDINTWVPFYSTELNKPAMIYCSHGDGHWVHAQCMDLAERTLIHLSAGSNKYSCNEHVEIARALHTP | -0.18 ± 0.095
20 | YWITCCPTCDVDINTGVPFYSTELNKPAMIYCSHGDGHWVHAQCMDLAERTLIHLSAGSNKYYCNEHVEIARALHTP | -0.565 ± 0.15
21 | YWITCCPTCDVDINTWVPFYSTELNKPAMIYCSHGDGHWVHAQCMDLAERTLSHLSAGSNKYYCNEHVEIARALHTP | 0.049 ± 0.086
22 | YWITCCPTCDVDINTWVPFYSTELNKPAMIYCSHGDGHWVHAQCMDLAERTLYHLSAGSNKYYCNEHVEIARALHTP | -0.133 ± 0.1
23 | YWITCCPTCDVDINTWVPFYSTELNKPAMIYCSHGDGHWVHAQCMDLAERTLRHLSAGSNKYYCNEHVEIARALHTP | -0.011 ± 0.071
24 | YWITCCPTCDVDINTWVPFYSTELNKPAMIYCSHGDGHSVHAQCMDLAERTLIHLSAGSNKYYCNEHVEIARALHTP | -0.209 ± 0.039
25 | YWITCCPTCDVDINTWVPFYSTELNKPAMIRCSHGDGHWVHAQCMDLAERTLIHLSAGSNKYYCNEHVEIARALHTP | -0.04 ± 0.065
26 | YWITCCPTCDVDINTWVPFYSTELNKPAMIACSHGDGHWVHAQCMDLAERTLIHLSAGSNKYYCNEHVEIARALHTP | -0.193 ± 0.074
27 | YWITCCPTCDVDINTWVPFYSTELNKPAMIHCSHGDGHWVHAQCMDLAERTLIHLSAGSNKYYCNEHVEIARALHTP | -0.061 ± 0.18
28 | YWIECCPTCDVDINTWVPFYSTELNKPAMIYCSHGDGHWVHAQCMDLAERTLIHLSAGSNKYYCNEHVEIARALHTP | -0.057 ± 0.063
29 | YWITCCPTCDVDINTWVPFYSTELNKPAMIYCSHGDGHWVHAQCMDLAERTLIHLSAGSNKYYCNEHVMIARALHTP | 0.18 ± 0.27
30 | YWITCCPTCDVDINTWVPFYSTELNKPAMIYCSHGDGHWVHAQCMDLAERTLIHLSAGSMKYYCNEHVEIARALHTP | -0.081 ± 0.1
31 | YWITCCPTCDVDINTWVPFYSTELNKPAMIYCSHGDGHWVHAQCMDLAERTLIHLSAGSCKYYCNEHVEIARALHTP | -0.209 ± 0.12
32 | YWITCCPTCDVDINTWVPFYSTELNKPAMIYCSHGDGHWVHAQCMDLAERTLIHLSAGSIKYYCNEHVEIARALHTP | -0.045 ± 0.099
33 | YWITCCPTCDVDINTWVPFYSTELNKPAMIYCSHGDGHWVHAQCMDLAERTLIHLTAGSNKYYCNEHVEIARALHTP | 0.004 ± 0.099
34 | YWITCCPTCDVDINTWVPFYSTELNKPAMIYCSHGDGHWVHAQCMDLAERTLIHLSAGSNKYYCNEHVEIARLLHTP | 0.053 ± 0.084
35 | YWITCCPTCDVDINTWVPFYSTELNKPAMIYCSHGDGHWVHAQCMDLAERTLIHLSAGSNTYYCNEHVEIARALHTP | -0.045 ± 0.3
36 | YWITCCPTCDVDINTWVPFYSTELNKQAMIYCSHGDGHWVHAQCMDLAERTLIHLSAGSNKYYCNEHVEIARALHTP | -0.79 ± 0.33
